Laboratory results taken from patent US20050009119A1.

Molecular target: human nucleophosmin (NPM; B23) (human) (UniProt P06748)
Assay: Scatchard analysis, increasing amounts of 125I-labelled antibody on intact cells (cell line not stated)

UniProt P06748, sequence (P06748 whole entry): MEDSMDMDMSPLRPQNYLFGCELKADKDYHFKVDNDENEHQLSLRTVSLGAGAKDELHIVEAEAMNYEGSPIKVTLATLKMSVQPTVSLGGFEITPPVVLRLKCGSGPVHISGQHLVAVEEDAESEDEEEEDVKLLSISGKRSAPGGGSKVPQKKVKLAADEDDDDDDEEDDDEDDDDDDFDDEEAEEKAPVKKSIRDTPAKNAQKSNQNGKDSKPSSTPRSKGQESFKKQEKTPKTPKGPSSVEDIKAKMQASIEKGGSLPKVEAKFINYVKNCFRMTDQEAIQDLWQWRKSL

Kd: 8.2 nM
Substance: mouse monoclonal anti-nucleophosmin antibody (Zymed Laboratories, catalog no. 32-5200)
